# Values of other authors as cited in patent publication US20080031874A1, “Treatment of endotoxemia using endotoxin neutralizing agents” (priority 2006, published 2008).
# B1: LBP: glycoprotein present in serum that recognizes the lipid A region of LPS (protein, UniProt P18428 26-481, looked up)
# Lipopolysaccharide-binding …: ANPGLVARITDKGLQYAAQEGLLALQSELLRITLPDFTGDLRIPHVGRGRYEFHSLNIHSCELLHSALRPVPGQGLSLSISDSSIRVQGRWKVRKSFFKLQGSFDVSVKGISISVNLLLGSESSGRPTVTASSCSSDIADVEVDMSGDLGWLLNLFHNQIESKFQKVLESRICEMIQKSVSSDLQPYLQTLPVTTEIDSFADIDYSLVEAPRATAQMLEVMFKGEIFHRNHRSPVTLLAAVMSLPEEHNKMVYFAISDYVFNTASLVYHEEGYLNFSITDDMIPPDSNIRLTTKSFRPFVPRLARLYPNMNLELQGSVPSAPLLNFSPGNLSVDPYMEIDAFVLLPSSSKEPVFRLSVATNVSATLTFNTSKITGFLKPGKVKVELKESKVGLFNAELLEALLNYYILNTFYPKFNDKLAEGFPLPLLKRVQLYDLGLQIHKDFLFLGANVQYMRV
molecule,measurement,setting,value
B1,complexes with rough and smooth form LPS,,"high affinity, 1:1 stoichiometric complexes"
same,direct cytotoxicity for gram-negative bacteria,gram-negative bacteria,not directly cytotoxic
